Reference: publication PMC4884500 (DNA repair, 2016)

How the values were obtained:
[1] = target: Full-length MmRAD51D (yeast two-hybrid fusion) (mouse) (UniProt O55230); assay: two-hybrid
[2] = target: T1, Full-length MmRAD51D (yeast two-hybrid fusion) (mouse, UniProt O55230 1-329); assay: two-hybrid
T1 sequence (looked up): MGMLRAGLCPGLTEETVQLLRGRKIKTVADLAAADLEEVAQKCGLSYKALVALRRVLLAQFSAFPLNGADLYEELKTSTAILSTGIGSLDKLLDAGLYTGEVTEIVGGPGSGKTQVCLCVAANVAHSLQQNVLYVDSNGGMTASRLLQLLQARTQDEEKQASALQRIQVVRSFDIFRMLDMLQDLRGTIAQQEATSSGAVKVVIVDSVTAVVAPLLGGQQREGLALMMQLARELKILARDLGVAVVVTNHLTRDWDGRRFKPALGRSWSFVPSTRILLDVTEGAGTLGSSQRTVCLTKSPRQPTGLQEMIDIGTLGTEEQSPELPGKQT

Molecule | fold decrease in the level of interaction against full-length RNF138 [1] | β-galactosidase level relative to the DBD-RAD51D:AD-RAD51C positive control [2]
MmRnf138-Δ7 (RNF138 splice variant with a deletion of exon 7, yeast two-hybrid fusion) (natural protein) | 3 fold | –
MmRnf138-Δ5 (RNF138 splice variant with a deletion of exon 5, yeast two-hybrid fusion) (natural protein) | 8 fold | –
RNF138 (yeast two-hybrid fusion) (natural protein, mouse, UniProt Q9CQE0-1 1-245, looked up) MSEELSAATSYTEDDFYCPVCQEVLKTPVRTAACQHVFCRKCFLTAMRESGIHCPLCRGSVTRRERACPERALDLENIMRRFSGSCRCCSKKIKFYRMRHHYKSCKKYQDEYGVSSVIPNFKISQDSVRSSNRSETSASDNTETYQEDTSSSGHPTFKCPLCQESNFTRQRLLDHCNSNHLFQIVPVTCPICVSLPWGDPSQITRNFVSHLNQRHQFDYGEFVNLQLDEETQYQTAVEESFQVNM | – | 79%
